The source of these data is US20240301062A1.

Test [1] concerns the target mouse CLDN6 (mouse) (UniProt Q9Z262). Nature of the test: flow cytometry, CHOK1/mouse CLDN6-GFP cells.
The target of test [2] is human claudin 6 (CLDN6) (human) (UniProt P56747). The experiment in a line: flow cytometry, PA-1 cells (endogenous CLDN6). (In flow cytometry, cells or beads pass a laser one at a time.)
Test [3] has the same target. Nature of the test: flow cytometry, CHOK1/human CLDN6-GFP cells.
Test [4] concerns the target cyno CLDN6 (cyno). Nature of the test: flow cytometry, CHOK1/Cyno CLDN6-GFP cells.
In test [5] the target is human claudin 9 (CLDN9) (human) (UniProt O95484). Nature of the test: flow cytometry, CHOK1/human CLDN9-GFP cells.
Chain of human claudin 9 (CLDN9) (human) (O95484 whole entry): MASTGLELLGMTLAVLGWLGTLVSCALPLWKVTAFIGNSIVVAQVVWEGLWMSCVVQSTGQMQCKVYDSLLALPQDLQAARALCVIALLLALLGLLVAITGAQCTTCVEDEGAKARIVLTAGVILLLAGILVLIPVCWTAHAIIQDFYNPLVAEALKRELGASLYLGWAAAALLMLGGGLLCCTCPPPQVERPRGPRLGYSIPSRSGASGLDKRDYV

Chain of human claudin 6 (CLDN6) (human) (P56747 whole entry): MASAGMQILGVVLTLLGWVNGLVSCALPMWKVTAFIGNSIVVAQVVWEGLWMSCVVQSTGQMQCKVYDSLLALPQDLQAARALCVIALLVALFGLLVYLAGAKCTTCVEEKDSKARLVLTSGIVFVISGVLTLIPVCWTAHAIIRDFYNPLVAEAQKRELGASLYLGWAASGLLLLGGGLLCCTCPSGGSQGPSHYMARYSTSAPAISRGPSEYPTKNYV
Chain of mouse CLDN6 (mouse) (Q9Z262 whole entry): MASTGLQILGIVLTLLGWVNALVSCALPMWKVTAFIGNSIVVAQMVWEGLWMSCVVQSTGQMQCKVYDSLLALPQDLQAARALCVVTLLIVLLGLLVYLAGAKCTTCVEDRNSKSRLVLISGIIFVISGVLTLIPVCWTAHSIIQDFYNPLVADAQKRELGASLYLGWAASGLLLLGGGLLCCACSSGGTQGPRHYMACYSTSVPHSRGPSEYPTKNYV

Human IgG1 isotype Ctrl. (antibody): the Emax (MFI) came to 41.8 MFI in test [1]; 34 MFI in test [2]; 31.1 MFI in test [3]; 225 MFI in test [4]; 26.9 MFI in test [5].
